For assay [1], the target named is T1, mouse EphA4 extracellular region-Fc-His protein (mouse; human, UniProt Q03137 20-547).
T1 construct: Used as culture supernatant of transfected cells; not shown: Fc region of human IgG1; histidine tag
Description: ELISA; Eph receptor extracellular region-Fc-His captured by anti-6-His antibody, antibody at 10 µg/mL. On the procedure: For antibody B, the evaluation of the binding activity of mouse Eph receptor was carried out according to the following steps.
Rabbit anti-6-His antibodies (Bethyl Laboratories) were coated onto the wells of a 96-well plate (Nunc). After incubating at 4° C. overnight, the wells were blocked at room temperature for 1 hour by 1% Block Ace (DS Pharma Biomedical). After washing 3 times with 0.05% Tween 20/PBS (Thermo […]), each Eph receptor of mouse extracellular region-Fc-His protein (final concentration 1 nM) was seeded into each well, and incubated at room temperature for 1 hour. After washing 3 times, human IgG solution (100 μg/mL, Sigma) and antibody B (10 μg/mL) were supplemented to the wells, and incubated at room temperature for 1 hour. Horseradish peroxidase-labeled goat anti-human Kappa Light Chain antibody (IBL) was added, and incubated at room temperature for 1 hour. After washing 3 times, TMBZ (3,3′,5,5′-tetramethylbenzidine, Sigma) solution was added to the wells, and upon confirmation of modest coloring, an equal amount of quenching solution (1 N H₂SO₄, Wako Pure Chemicals) was added to the wells, and absorbance at 450 nm was read by a microplate reader (PerkinElmer).
(In an ELISA, binding on a coated surface is turned into a signal by an enzyme label.)

The target in assay [2] is T2, human EphA1 extracellular region-SEAP-His protein (human, UniProt P21709 26-547).
T2 construct: extracellular domain; also called Eph receptor extracellular region-SEAP-His protein; not shown: secretory alkaline phosphatase (SEAP); histidine tag
T2 sequence (looked up): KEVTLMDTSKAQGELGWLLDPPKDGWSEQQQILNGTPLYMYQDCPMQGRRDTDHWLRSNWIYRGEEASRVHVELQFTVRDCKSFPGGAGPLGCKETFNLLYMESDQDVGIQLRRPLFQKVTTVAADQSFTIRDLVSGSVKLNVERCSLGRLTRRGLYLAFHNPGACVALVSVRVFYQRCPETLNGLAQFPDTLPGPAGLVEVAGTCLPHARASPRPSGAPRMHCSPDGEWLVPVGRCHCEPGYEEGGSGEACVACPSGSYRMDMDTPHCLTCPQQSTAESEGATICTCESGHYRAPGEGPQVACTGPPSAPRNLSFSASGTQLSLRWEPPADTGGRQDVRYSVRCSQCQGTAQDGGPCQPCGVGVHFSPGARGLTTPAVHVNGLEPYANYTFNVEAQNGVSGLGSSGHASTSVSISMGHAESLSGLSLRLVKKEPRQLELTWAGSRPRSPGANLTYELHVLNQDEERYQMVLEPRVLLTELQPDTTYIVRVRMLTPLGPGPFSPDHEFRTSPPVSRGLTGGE
Kind of assay: ELISA: SEAP-His proteins (1 nM) captured on anti-6-His antibody, antibody B 10 µg/mL with human IgG 100 µg/mL, HRP anti-human IgG, OD450 as % of human EphA4-SEAP-His.

Assay [3] has as its target T3, human EphB2 extracellular region-SEAP-His protein (human, UniProt P29323 19-543).
T3 construct: extracellular domain; also called Eph receptor extracellular region-SEAP-His protein; not shown: secretory alkaline phosphatase (SEAP); histidine tag
T3 sequence (looked up): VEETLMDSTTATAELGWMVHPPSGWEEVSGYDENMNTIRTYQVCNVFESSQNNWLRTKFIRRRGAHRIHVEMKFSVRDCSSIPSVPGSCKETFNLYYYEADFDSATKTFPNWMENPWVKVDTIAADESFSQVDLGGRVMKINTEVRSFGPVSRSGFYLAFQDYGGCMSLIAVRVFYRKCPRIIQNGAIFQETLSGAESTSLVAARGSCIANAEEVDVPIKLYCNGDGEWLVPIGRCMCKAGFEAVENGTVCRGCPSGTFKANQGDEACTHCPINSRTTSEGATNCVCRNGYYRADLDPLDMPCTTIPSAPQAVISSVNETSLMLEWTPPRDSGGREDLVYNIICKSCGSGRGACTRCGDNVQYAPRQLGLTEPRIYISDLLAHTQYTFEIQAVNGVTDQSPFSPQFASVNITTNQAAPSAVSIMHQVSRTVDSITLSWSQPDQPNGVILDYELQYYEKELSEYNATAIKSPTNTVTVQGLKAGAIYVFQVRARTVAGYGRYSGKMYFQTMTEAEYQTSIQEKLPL
The assay is described as above.

The target in assay [4] is T4, human EphA4 extracellular region-Fc-His protein (human, UniProt P54764 20-547).
T4 construct: not shown: Fc region of human IgG1; histidine tag
Description: ELISA: EphA4 extracellular region-Fc-His (1 nM) captured on anti-human IgG antibody, antibody A titrated with human IgG 100 µg/mL, HRP anti-mouse IgG, OD450 as % of top concentration. On the procedure:
(§1) Donkey anti-human IgG antibodies (Jackson ImmunoResearch Laboratories) were coated onto the wells of a 96-well plate (Nunc). After incubating at 4° C. overnight, the wells were blocked at room temperature for 1 hour by 1% Block Ace (DS Pharma Biomedical). After washing 3 times with 0.05% Tween 20/PBS (Thermo […]), mouse, rat, monkey, and human EphA4 extracellular region-Fc-His proteins (final concentration 1 nM) were seeded into the wells, and incubated at room temperature for 1 hour. After washing 3 times, human IgG solution (100 μg/mL, Mitsubishi Pharma Corporation) and antibody A (0, 0.00013, 0.00064, 0.0032, 0.016, 0.08, 0.4, 2, 10, μg/mL) were supplemented to the wells, and incubated at room temperature for 1 hour. Horseradish peroxidase-labeled donkey anti-mouse IgG antibody (Jackson ImmunoResearch Laboratories) was added, and incubated at room temperature for 1 hour. After washing 3 times, TMBZ (3,3′,5,5′-tetramethylbenzidine, Sigma) solution was added to the wells, and upon confirmation of modest coloring, an equal amount of quenching solution (1 N H₂SO₄, Wako Pure Chemicals) was added to the wells, and absorbance at 450 nm was read by a microplate reader (PerkinElmer).

Assay [5] deals with T1, mouse EphA4 extracellular region-Fc-His …. Described as above. As for the experimental part: as §1

The term EC50 (read off the curve) denotes the concentration needed to bring the measured effect to its halfway point. Lower therefore signals a more potent agent.

T1 sequence (Q03137 20-547): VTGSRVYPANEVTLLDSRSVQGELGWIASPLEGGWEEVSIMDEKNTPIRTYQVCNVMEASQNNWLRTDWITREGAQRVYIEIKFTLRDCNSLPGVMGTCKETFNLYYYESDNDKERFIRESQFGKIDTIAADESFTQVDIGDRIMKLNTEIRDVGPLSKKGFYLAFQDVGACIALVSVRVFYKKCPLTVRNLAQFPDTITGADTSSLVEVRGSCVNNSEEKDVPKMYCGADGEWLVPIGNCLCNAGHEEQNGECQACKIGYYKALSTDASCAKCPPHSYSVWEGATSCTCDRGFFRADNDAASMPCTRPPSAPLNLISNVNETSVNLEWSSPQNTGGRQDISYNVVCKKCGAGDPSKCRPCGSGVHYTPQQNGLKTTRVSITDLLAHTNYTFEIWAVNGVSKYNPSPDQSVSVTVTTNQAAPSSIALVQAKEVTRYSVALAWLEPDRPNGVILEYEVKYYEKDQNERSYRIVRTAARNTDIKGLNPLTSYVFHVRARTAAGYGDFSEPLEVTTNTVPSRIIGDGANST
T4 sequence (P54764 20-547): as the sequence (Q03137 20-547) above, with A59P, S121N, G124V, Q250R, N251S, S270T, R378K, S406N counted along it

B1: humanized anti-EphA4 monoclonal antibody (antibody B) (antibody, human IgG2, V domains shown)
VH: QVQLVESGGGVVQPGRSLRLSCAVSGFSLTRFGVHWVRQAPGKGLEWVAVIWRGGSTDYNAAFMSRLTISKDNSKNTVYLQMNSLRAEDTAVYYCAKESLFGVYYDYGYYSMDYWGQGTTVTVSS
VL: DIQMTQSPSSLSASVGDRVTITCRASQEISGYLSWLQQKPGKAPKRLIYAASTLDSGVPSRFSGSRSGTEYTLTISSLQPEDFATYYCLQYASYPLTFGGGTKVEIKR
notes: expressed in Expi293F cells; also called humanized antibody of antibody A; HK2-42 / L1-8
As to B1, the results for the binding result in assay [1], in assay [2] and in assay [3] were “binds”, “no binding (tested: 10 µg/mL)” and “no binding (tested: 10 µg/mL)”, respectively.

B2: mouse anti-EphA4 monoclonal antibody (antibody A) (antibody, mouse IgG1, kappa, V domains shown)
VH: QVQLKQSGPSLVQPSQSLSITCTVSGFSLTRYGVHWVRQSPGKGLEWLGVIWRGGSTDYNAAFMSRLSITKDNSKSQVFFKMNSLQADDTAIYYCAKESLFGVYYDYGYYSMDYWGQGTSVTVSS
VL: DIQMTQSPSSLSASLGERVSLTCRASQEISGYLSWLQQKPDGTIKRLIYAASTLDSGVPKRFSGSRSGSDYSLTISSLESEDFADYYCLQYASYPLTFGAGTKLELKR
notes: purified from hybridoma supernatant
As to B2, the “EC50 (read off the curve)” value in assay [4] and in assay [5] was ~0.1 nM throughout.

These data come from patent US20240010735A1 (EISAI R AND D MANAGEMENT, published 2024).
